Experimental data as given in patent publication US6767991.
Where no end group is shown, it is not given here. [ ]: non-standard residue; d: D form. Pro(1-NpCH2O) = Pro(4-R13), R13 = 1-NpCH2O; Pro(2-NpCH2O) = Pro(4-R13), R13 = 2-NpCH2O; P1(R14 Et, 1R,2R) = not defined here; P1(R14 Et, 1S,2S) = not defined here; Pro(4-OBn) = Pro(4-R13), R13 = OBn; Pro(O-Bn) = Pro(4-R13), R13 = O-Bn; Pro(OBn) = Pro(4-R13), R13 = OBn; Chg = N[C@H](C(=O)O)C1CCCCC1; Acca = not defined here; Nva = CCC[C@H](N)C(=O)O; Ac3c = NC1(C(=O)O)CC1

B1: Compound 236 (Table 2): Ac-Gly-thioxo-Ile-Val-Pro(1-NpCH2O)-Nva (peptide)
peptide: Ac-GIVP[Nva]
modifications: not fully specified (residue 4); also: Ile2 thioxo (L-thionoisoleucine), thioamide

Each binder was assayed against recombinant NS3 protease with the NS4A peptide cofactor … (molar ratio enzyme:cofactor 1:100) (hepatitis C virus genotype 1b) (assay: cell-based or functional assay).

| Binder | IC50 | fold potency against the corresponding 1S,2S isomer (compound 514) |
| --- | --- | --- |
| Ac-[Chg]VP[Ac3c] (not fully specified (residue 3); printed as Ac-Chg-Val-Pro(1-NpCH2O)-Acca) [Compound 227 (Table 2): Ac-Chg-Val-Pro(1-NpCH2O)-Acca] | 3000 nM |  |
| Ac-[Chg][Chg]P[P1(R14 Et, 1S,2S)] (not fully specified (residue 3); reading uncertain) [Compound 506 (Table 5): Ac-Chg-Chg-Pro(1-NpCH2O)-P1(R14 Et; 1S, 2S)] | 4850 nM |  |
| Ac-[Chg]VP[P1(R14 Et, 1R,2R)] (not fully specified (residue 3); reading uncertain) [Compound 513 (Table 5): Ac-Chg-Val-Pro(1-NpCH2O)-P1(R14 Et; 1R, 2R)] | 1660 nM | 25 fold |
| Ac-[Chg]VP[Ac3c] (not fully specified (residue 3); printed as Ac-Chg-Val-Pro(R13)-Acca) [Compound 257 (Table 2): Ac-Chg-Val-Pro(R13)-Acca, R13 drawn] | 2200 nM |  |
| Ac-[Chg]VPX (not fully specified (residue 3); printed as Ac-Chg-Val-Pro(O-Bn)-P1) [Compound 228 (Table 2): Ac-Chg-Val-Pro(O-Bn)-P1, P1 drawn] | 35000 nM |  |

Target: recombinant NS3 protease with the NS4A peptide cofactor … (molar ratio enzyme:cofactor 1:100) (hepatitis C virus genotype 1b)
Test: cell-based or functional assay
Remark: another data set of the same source

| Binder | IC50 |
| --- | --- |
| Ac-D[dE]IV[Pro(OBn)][(1R,2R)‑1‑amino‑2‑ethylcyclopropanecarboxylic acid] [Compound 517 (Table 5): Ac-Asp-D-Glu-Ile-Val-Pro(OBn)-P1(R14 Et; 1R, 2R)] | 75 nM |
| B1 | 4000 nM |
| Ac-D[dV]IV[Pro(O-Bn)][Nva] [Compound 202 (Table 2): Ac-Asp-D-Val-Ile-Val-Pro(O-Bn)-Nva] | 930 nM |
| Ac-D[dE]IV[Pro(2-NpCH2O)][Nva] [Compound 213 (Table 2): Ac-Asp-D-Glu-Ile-Val-Pro(2-NpCH2O)-Nva] | 36 nM |
| Ac-D[dE]IV[Pro(OBn)][(1S,2S)‑1‑amino‑2‑ethylcyclopropanecarboxylic acid]-{NH‑(S)‑CHMePh} [Compound 1001 (Table 10): Ac-Asp-D-Glu-Ile-Val-Pro(OBn)-P1(R14 Et; 1S, 2S)-NH-(S)-CHMePh] | 2000 nM |
| Ac-D[dE][Chg]V[Pro(1-NpCH2O)][Acca] (reading uncertain) [Compound 215 (Table 2): Ac-Asp-D-Glu-Chg-Val-Pro(1-NpCH2O)-Acca] | 14 nM |
| Ac-D[dE]IVP[Nva] [Compound 128 (Table 1): Ac-Asp-D-Glu-Ile-Val-Pro-Nva] | 7400 nM |
| D[dE]IV[Pro(O-Bn)][1‑amino‑2‑vinylcyclopropanecarboxylic acid] (not fully specified; also: further groups not given here) [Compound 636 (Table 6): P6 Asp, P5 D-Glu, P4 Ile, P3 Val, R13 O-Bn, R14 vinyl] | 470 nM |
| Ac-D[dE][Chg]EE[Acca] (reading uncertain) [Compound 132 (Table 1): Ac-Asp-D-Glu-Chg-Glu-Glu-Acca] | 36000 nM |
| Ac-D[dE]IV[Pro(OBn)][(1S,2S)‑1‑amino‑2‑ethylcyclopropanecarboxylic acid]-{NH‑(R)‑CHMePh} [Compound 1002 (Table 10): Ac-Asp-D-Glu-Ile-Val-Pro(OBn)-P1(R14 Et; 1S, 2S)-NH-(R)-CHMePh] | 49000 nM |
| Ac-D[dE][Chg]V[Pro(O-Bn)][Nva] [Compound 211 (Table 2): Ac-Asp-D-Glu-Chg-Val-Pro(O-Bn)-Nva] | 120 nM |
| Ac-D[dE]IV[Pro(4-OBn)][Nva] [Compound 218 (Table 2): Ac-Asp-D-Glu-Ile-Val-Pro(O-Bn)-Nva] | 490 nM |
